T1: IL1RL1 over-expressed on Expi293 cells (UniProt Q01638 19-556, limits assumed)
T1 construct: whole, on cells; Target of the flow cytometry MFI ratio (over-expressing cells over parent cells); also called cytokine over-expressing Expi293 cells
T1 sequence (looked up): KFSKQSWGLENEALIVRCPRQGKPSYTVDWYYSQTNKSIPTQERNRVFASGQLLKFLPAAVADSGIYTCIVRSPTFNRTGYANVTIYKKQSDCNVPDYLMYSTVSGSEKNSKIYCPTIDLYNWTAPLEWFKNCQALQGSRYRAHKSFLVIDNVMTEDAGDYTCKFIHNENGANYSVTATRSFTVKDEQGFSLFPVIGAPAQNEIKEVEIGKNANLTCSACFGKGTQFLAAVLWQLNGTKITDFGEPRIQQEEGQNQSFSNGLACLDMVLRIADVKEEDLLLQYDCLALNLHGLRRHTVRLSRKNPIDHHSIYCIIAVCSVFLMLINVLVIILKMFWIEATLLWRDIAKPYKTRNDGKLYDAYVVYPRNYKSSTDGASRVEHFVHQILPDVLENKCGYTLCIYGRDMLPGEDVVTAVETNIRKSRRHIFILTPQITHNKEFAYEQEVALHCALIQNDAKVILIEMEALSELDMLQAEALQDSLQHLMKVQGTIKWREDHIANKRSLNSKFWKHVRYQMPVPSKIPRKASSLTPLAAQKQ

T2: IL1RL1 (UniProt Q01638 19-328, limits assumed)
T2 construct: SPR analyte
T2 sequence (looked up): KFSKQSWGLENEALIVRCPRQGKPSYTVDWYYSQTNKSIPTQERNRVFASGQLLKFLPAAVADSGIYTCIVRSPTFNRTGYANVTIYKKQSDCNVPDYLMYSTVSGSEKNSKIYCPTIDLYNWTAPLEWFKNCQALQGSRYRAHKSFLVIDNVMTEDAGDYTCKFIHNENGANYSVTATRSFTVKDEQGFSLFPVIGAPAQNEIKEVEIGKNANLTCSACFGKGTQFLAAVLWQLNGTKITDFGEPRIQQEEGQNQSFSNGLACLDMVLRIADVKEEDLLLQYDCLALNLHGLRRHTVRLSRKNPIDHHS


Columns and labels:
[1] = target: T1, IL1RL1 over-expressed on Expi293 cells; assay: flow cytometry, 100 nM antibody, over-expressing Expi293 / parent cells
Protocol: All incubations and washes were in buffer containing PBS+1% BSA. MFI Ratio is defined by the mean fluorescence intensity (MFI) of the cytokine over-expressing Expi293 cell over the Expi293 parent cell. […] EC50 was calculated in GraphPad Prism.

IL1RL1 = target: T2, IL1RL1; assay: SPR (Carterra LSA), antibody amine-coupled, 1:1 model;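 further: HC30M sensor chip at 25 °C in HBS-TE, analyte at rising concentrations in buffer containing 0.5 mg/mL BSA, 5 min association then 15 min dissociation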
Protocol: SPR experiments were performed on a Carterra LSA SPR biosensor equipped with a HC30M chip at 25° C. in HBS-TE. Antibodies were diluted to 10 μg/mL and amine-coupled to the sensor chip by EDC/NHS activation, followed by ethanolamine HCl quenching. Increasing concentrations of analyte were flowed over the sensor chip in HBS-TE with 0.5 mg/mL BSA with 5-minute association and 15-minute dissociation. Following each injection cycle the surface was regenerated with 2× 30-second injections of IgG elution buffer (Thermo). Data were analyzed in Carterra's Kinetics Tool software with 1:1 binding model.

Row | Binder | 100 nM FACS (MFI Ratio) [1] [MFI ratio] | Kd (IL1RL1) [nM] | koff (IL1RL1) [s⁻¹] | kon (IL1RL1) [M⁻¹ s⁻¹]
1 | IL1RL1-14 (Fc fusion, not shown: a dimerising Fc or GST, VHH-Fc on IgG2 Fc) VHH: EVQLVESGGGLVQPGGSLRLSCAASGDISSIVAMGWFRQAPGKEREWVSSIDTGGGSNIVYADSVKGRFTISADNSKNTAYLQMNSLKPEDTAVYYCAAGLLDVQYVRQAAGYSWGQGTLVTVSS | 515 | ≤ 0.0744 | ≤ 1e-05 | 134000
2 | IL1RL1-24 (Fc fusion, not shown: a dimerising Fc or GST, VHH-Fc on IgG2 Fc) VHH: EVQLVESGGGLVQPGGSLRLSCAASGGTAYAMGWFRQAPGKEREWVASISTSGSTITPYADSVKGRFTISADNSKNTAYLQMNSLKPEDTAVYYCAAASRSGSGYDWGQGTLVTVSS | 438 | 1.62 | 0.000232 | 143000
3 | IL1RL1-59 (Fc fusion, not shown: a dimerising Fc or GST, VHH-Fc on IgG2 Fc) VHH: EVQLVESGGGLVQPGGSLRLSCAASGGTAYAMGWFRQAPGKEREWVASISTSGSTITPYADSVKGRFTISADNSKNTAYLQMNSLKPEDTAVYYCAANVGVTGSYEWGQGTLVTVSS | 374 | ≤ 0.0748 | ≤ 1e-05 | 134000
4 | IL1RL1-15 (Fc fusion, not shown: a dimerising Fc or GST, VHH-Fc on IgG2 Fc) VHH: EVQLVESGGGLVQPGGSLRLSCAASGRTYSISAMGWFRQAPGKEREWVSSIGIAGTPTFYADSVKGRFTISADNSKNTAYLQMNSLKPEDTAVYYCAAGVTGGAAYGWGQGTLVTVSS | 331 | 3.23 | 0.00041 | 127000
5 | IL1RL1-6 (Fc fusion, not shown: a dimerising Fc or GST, VHH-Fc on IgG2 Fc) VHH: EVQLVESGGGLVQPGGSLRLSCAASGRTISTYGMGWFRQAPGKEREWVSGINRDGSTYYADRVKGRFTISADNSKNTAYLQMNSLKPEDTAVYYCALRRLSPPPLLDWGQGTLVTVSS | 128 | 0.149 | 3.7e-05 | 248000
6 | IL1RL1-12 (Fc fusion, not shown: a dimerising Fc or GST, VHH-Fc on IgG2 Fc) VHH: EVQLVESGGGLVQPGGSLRLSCAASGSIFGLNAMGWFRQAPGKEREFVAAISRFGSTDYADSVKGRFTISADNSKNTAYLQMNSLKPEDTAVYYCARSYCTADSCYSSWFDPWGQGTLVTVSS | 437 | 4.08 | 0.000326 | 80100
7 | IL1RL1-90 (Fc fusion, not shown: a dimerising Fc or GST, VHH-Fc on IgG2 Fc) VHH: EVQLVESGGGLVQPGGSLRLSCAASGVTLDLYAMGWFRQAPGKEREAVASISSSGSSIYYADSVKGRFTISADNSKNTAYLQMNSLKPEDTAVYYCAANYGGSVLYNWGQGTLVTVSS | 105 | ≤ 0.078 | ≤ 1e-05 | 128000
8 | IL1RL1-8 (Fc fusion, not shown: a dimerising Fc or GST, VHH-Fc on IgG2 Fc) VHH: EVQLVESGGGLVQPGGSLRLSCAASGRTSNIYAMGWFRQAPGKEREFVASLSASGSLTWYADSVKGRFTISADNSKNTAYLQMNSLKPEDTAVYYCAANYGGSVLYNWGQGTLVTVSS | 298 | ≤ 0.166 | ≤ 1e-05 | 60300
9 | IL1RL1-19 (Fc fusion, not shown: a dimerising Fc or GST, VHH-Fc on IgG2 Fc) VHH: EVQLVESGGGLVQPGGSLRLSCAASGRTDSTASMGWFRQAPGKEREEVAAISWSGGRTYYADSVKGRFTISADNSKNTAYLQMNSLKPEDTAVYYCARLAFQGNTVFDLWGQGTLVTVSS | 486 | 0.104 | 1.29e-05 | 123000
10 | IL1RL1-92 (Fc fusion, not shown: a dimerising Fc or GST, VHH-Fc on IgG2 Fc) VHH: EVQLVESGGGLVQPGGSLRLSCAASGRTHSTASMGWFRQAPGKEREEVAAISWSGGRTYYADSVKGRFTISADNSKNTAYLQMNSLKPEDTAVYYCARLAFQGNTVFDLWGQGTLVTVSS | 484 | 4.4 | 0.000619 | 141000
11 | IL1RL1-21 (Fc fusion, not shown: a dimerising Fc or GST, VHH-Fc on IgG2 Fc) VHH: EVQLVESGGGLVQPGGSLRLSCAASGTITSAVFMGWFRQAPGKEREFVAGIIGSGGATYYADSVKGRFTISADNSKNTAYLQMNSLKPEDTAVYYCAASRYARERDVHAYDWGQGTLVTVSS | 521 | 0.409 | 5.04e-05 | 123000
12 | IL1RL1-7 (Fc fusion, not shown: a dimerising Fc or GST, VHH-Fc on IgG2 Fc) VHH: EVQLVESGGGLVQPGGSLRLSCAASGRTSNIYAMGWFRQAPGKEREPVASITPGGRFPAYADSVKGRFTISADNSKNTAYLQMNSLKPEDTAVYYCSTLYYSGLDPVDYWGQGTLVTVSS | 586 | ≤ 0.0757 | ≤ 1e-05 | 132000
13 | IL1RL1-11 (Fc fusion, not shown: a dimerising Fc or GST, VHH-Fc on IgG2 Fc) VHH: EVQLVESGGGLVQPGGSLRLSCAASGRTFNWYAMGWFRQAPGKEREWVSSIGIAGTPTFYADSVKGRFTISADNSKNTAYLQMNSLKPEDTAVYYCAAVSSNSETFDWGQGTLVTVSS | 446 | 12.9 | 0.000681 | 52800
14 | IL1RL1-20 (Fc fusion, not shown: a dimerising Fc or GST, VHH-Fc on IgG2 Fc) VHH: EVQLVESGGGLVQPGGSLRLSCAASGFSLDDRVMGWFRQAPGKEREFVAGITLGGSTSYADSVKGRFTISADNSKNTAYLQMNSLKPEDTAVYYCAAAPVPWGTRPSLLTYDWGQGTLVTVSS | 396 | 0.302 | 2.92e-05 | 96600
15 | IL1RL1-22 (Fc fusion, not shown: a dimerising Fc or GST) VHH: EVQLVESGGGLVQPGGSLRLSCAASGRTSNIYAMGWFRQAPGKEREWVASISTSGSTITPYADSVKGRFTISADNSKNTAYLQMNSLKPEDTAVYYCAIAHGSSTYNWGQGTLVTVSS | 294 | 1.36 | 0.000243 | 179000
16 | IL1RL1-10 (Fc fusion, not shown: a dimerising Fc or GST, VHH-Fc on IgG2 Fc) VHH: EVQLVESGGGLVQPGGSLRLSCAASGRTSNIYAMGWFRQAPGKEREWVASISTSGSTITPYADSVKGRFTISADNSKNTAYLQMNSLKPEDTAVYYCAAVYVSTWGNGYDWGQGTLVTVSS | 398 | 2.02 | 0.000241 | 119000
17 | IL1RL1-23 (Fc fusion, not shown: a dimerising Fc or GST, VHH-Fc on IgG2 Fc) VHH: EVQLVESGGGLVQPGGSLRLSCAASGRTFSTASMGWFRQAPGKEREWVASISTSGSTITPYADSVKGRFTISADNSKNTAYLQMNSLKPEDTAVYYCAVVDLLRGKLWGQGTLVTVSS | 526 | ≤ 0.188 | ≤ 1e-05 | 53100
18 | IL1RL1-16 (Fc fusion, not shown: a dimerising Fc or GST, VHH-Fc on IgG2 Fc) VHH: EVQLVESGGGLVQPGGSLRLSCAASGFSLDYYGMGWFRQAPGKEREGVATINWSGATSYADSVKGRFTISADNSKNTAYLQMNSLKPEDTAVYYCAIPGVWGQGTLVTVSS | 478 | 5.71 | 0.0011 | 193000
19 | IL1RL1-5 (Fc fusion, not shown: a dimerising Fc or GST, VHH-Fc on IgG2 Fc) VHH: EVQLVESGGGLVQPGGSLRLSCAASGRTFSSIVMGWFRQAPGKEREMVAVIIDSRTTKYADSVKGRFTISADNSKNTAYLQMNSLKPEDTAVYYCAAVGGATTVTASEWDWGQGTLVTVSS | 508 | 0.846 | 0.000162 | 191000
20 | IL1RL1-53 (Fc fusion, not shown: a dimerising Fc or GST, VHH-Fc on IgG2 Fc) VHH: EVQLVESGGGLVQPGGSLRLSCAASGRTPSIIAMGWFRQAPGKERELVAVIIDSRTTKYADSVKGRFTISADNSKNTAYLQMNSLKPEDTAVYYCAAVGGATTVTASEWDWGQGTLVTVSS | 441 | 0.927 | 0.000267 | 289000
21 | IL1RL1-4 (Fc fusion, not shown: a dimerising Fc or GST, VHH-Fc on IgG2 Fc) VHH: EVQLVESGGGLVQPGGSLRLSCAASGNAFRSTVMGWFRQAPGKEREFVAVIIDSRTTKYADSVKGRFTISADNSKNTAYLQMNSLKPEDTAVYYCAAVGGATTVTASEWDWGQGTLVTVSS | 472 | ≤ 0.0574 | ≤ 1e-05 | 174000
22 | IL1RL1-74 (Fc fusion, not shown: a dimerising Fc or GST, VHH-Fc on IgG2 Fc) VHH: EVQLVESGGGLVQPGGSLRLSCAASGFTFSSAIMGWFRQAPGKERELVAVIIDSRTTKYADSVKGRFTISADNSKNTAYLQMNSLKPEDTAVYYCAAVGGATTVTASEWDWGQGTLVTVSS | 521 | ≤ 0.0505 | ≤ 1e-05 | 198000
23 | IL1RL1-17 (Fc fusion, not shown: a dimerising Fc or GST, VHH-Fc on IgG2 Fc) VHH: EVQLVESGGGLVQPGGSLRLSCAASGRDLDYYAMGWFRQAPGKEREWVSSIGIAGTPTFYADSVKGRFTISADNSKNTAYLQMNSLKPEDTAVYYCAVVDLLRGKLWGQGTLVTVSS | 415 | 2.76 | 0.000588 | 213000

Source: patent publication US20230265179A1 (TWIST BIOSCIENCE, published 2023)
